Each block holds one molecule with its values, some of them ahead of it.
Assays:
[1] = L-asparaginase aminohydrolase activity, Nessler reagent assay (Example 1); type: biochemical; details: for Enzyme activity compared to the equally assayed non-modified Crisantaspase: Nessler assay of Example 1
Procedure: The modified proteins were purified by anion exchange chromatography (AEX) on a MonoQ HR5/5 column (GE Healthcare) using 25 mM Na-borate pH 9.0, 1 mM EDTA as running buffer and a NaCl concentration gradient from 0 to 1 M to elute the proteins. L-asparaginase aminohydrolase activity of each Crisantaspase modified protein was determined by reaction of ammonia that is liberated via L-asparagine enzymatic activity with the Nessler reagent. Briefly, 50 µL of enzyme solution was mixed with 20 mM of L-asparagine in a 100 mM sodium borate buffer pH 8.6 containing 0.015 % (w/v) bovine serum albumin and incubated for 15 min at 37 °C. The reaction was stopped by addition of 200 µL of Nessler reagent (Sigma-Aldrich). Absorbance of this solution was measured at 450 nm. The activity was calculated from a calibration curve that was obtained from ammonium sulphate as reference. Table 2: Enzymatic activities of Crisantaspase conjugated with Pga-P/A(20)-Ahx peptide in different amounts

[2] = L-asparaginase enzyme activity, Nessler endpoint assay, specific activity (Example 8); type: biochemical; details: Crisantaspase expression system E. coli; for Nessler (Average): average of plates 1-3; for Nessler Plate 1 / Nessler Plate 2 / Nessler Plate 3: specific activity
Procedure: PASylated L-asparaginase enzyme activity was determined by catalysis of the conversion of L-asparagine into L-aspartic acid. This reaction liberates one mole of ammonia per mole of converted L-asparagine. The released ammonia is detected using Nessler's reagent. In the presence of Nessler's reagent the ammonia will form a watersoluble yellow complex that can be quantified by absorbance measurement at 450 nm (Mashburn et al. (1963) Biochem. Biophys. Res. Commun. 12, 50). One unit of L-asparaginase enzyme activity (International Unit or IU) is defined as the amount of enzyme that catalyzes the conversion of one µmol of L-asparagine per minute. The specific activity of the samples (IU/mg) is determined by dividing the value of L-asparaginase activity expressed in IU/mL by the protein concentration expressed in mg/mL. The mass of the protein monomer with the PASylated sequence was measured.
The measurement of L-asparaginase activity is based on an endpoint assay in which the sample is diluted to a series of final enzyme concentrations which are then incubated at 37°C under saturating L-asparagine concentration for 15 minutes. The reaction is stopped by addition of Nessler's reagent and the amount of ammonia produced by the reaction is extrapolated from a calibration curve constructed from known quantities of ammonium sulfate used as standard. A plot of enzyme concentration versus ammonia is then created for each sample and the slope of the curve divided by the reaction time to obtain the specific activity in IU/mg. Specific activity is reported as IU/mg and is reported to the nearest whole number.

[3] = Pharmacokinetics, plasma asparaginase activity after single IV bolus dose; type: in vivo; details: single IV bolus 25 IU/kg body weight, male CD-1 mice, non-compartmental
Procedure: The pharmacokinetic profile of E. coli expressed recombinant crisantaspase as a PASylated fusion protein (PA-200) or chemically conjugated to PA-peptides (PA-20) was characterized following administration of a single intravenous bolus dose to CD-1 mice. The CD-1 mice is a model for a healthy mouse.
All animals received a single intravenous (IV) bolus via the lateral tail vein (10 mL/kg) based on the body weight taken prior to dosing. Individual doses were calculated based upon the most recent individual body weights to provide the proper dose. The first day of dosing was based on study day 0 body weights.
PASylated asparaginase was administered as a single IV dose of 25 IU/kg body weight to mice. […] Asparaginase activity in mouse plasma was measured using a qualified biochemical assay as described in the previous examples. […]
Asparaginase activity was measured as the concentration of asparaginase in the plasma samples as previously described (Allas et al. (2009) Blood, 114, 2033). […] The plasma asparaginase activity versus time data were analyzed using non-compartmental methods with sparse sampling in an IV bolus administration model. Activity values below the limit of quantitation of the assay (10 U/L) were set to zero in the calculation of group means. […]

[4] = Analytical gel filtration (SEC), hydrodynamic volume / apparent molecular size; type: physicochemical; details: tetramer, Superdex S200 10/300 GL, PBS, 1 mg/ml
Excerpt: In order to avoid polymerization of the peptides upon chemical activation of the C-terminus, the N-terminus was protected with pyroglutamyl (Pga) residue. Aminohexanoic acid (Ahx) was incorporated at the C-terminus of the peptides to serve as linker. […] The hydroxybenzotriazol (HOBt) active ester of the peptide is subsequently used to derivatize the amino groups (ε-amino groups of lysine residues or α-amino group of N-terminus) of Crisantaspase with the P/A peptide through formation of peptide or isopeptide bonds, while free HOBt is released. This coupling step is performed in aqueous solution (e.g. PBS buffer) with a content of organic solvent ≤ 30 %. […] The number of coupled P/A peptides can be determined by counting the bands in that ladder starting from the unconjugated Crisantaspase as marked on the right. […] Separation of remaining uncoupled peptide and other non-proteinous byproducts of the chemical conjugation devoid of UV absorption at 280 nm was monitored by the 225 nm UV trace. […]

[5] = children who received the drug; cited from earlier work
[6] = PEGylated enzyme compared to the unmodified L-asparaginase; cited from earlier work
[7] = 3.5 mg PA peptide/mg Crisantaspase, 10.4 mol PA peptide/mol monomer
[8] = 5 mg PA peptide/mg Crisantaspase, 11.2 mol PA peptide/mol monomer
[9] = 7.5 mg PA peptide/mg Crisantaspase, 11.7 mol PA peptide/mol monomer
[10] = 10 mg PA peptide/mg Crisantaspase, 12.0 mol PA peptide/mol monomer

Rel. activity [1, 7]: 94.1% | Rel. activity [1, 8]: 80.7% | Rel. activity [1, 9]: 74.3% | Rel. activity [1, 10]: 47.4%
Molecule: Pyroglutamoyl-P/A(20)-aminohexanoyl-Crisantaspase
Specific activity [1, 7]: 508 ± 20 U/mg | Specific activity [1, 8]: 436 ± 22 U/mg | Specific activity [1, 9]: 401 ± 21 U/mg | Specific activity [1, 10]: 256 ± 20 U/mg

Molecule: Pyroglutamoyl-P/A(20)-aminohexanoyl-Crisantaspase [Crisantaspase/PA(20) modified protein]
Nessler (Average) [2]: 676 IU/mg | Nessler Plate 1 [2]: 694 IU/mg | Nessler Plate 2 [2]: 732 IU/mg | Nessler Plate 3 [2]: 602 IU/mg | t½ [3]: 50.2 h | Enzyme activity compared to the equally assayed non-modified Crisantaspase [1]: 91.2% | apparent molecular size [4]: 531 kDa

Molecule: Pyroglutamoyl-P/A(40)-aminohexanoyl-Crisantaspase [Crisantaspase/PA(40) modified protein]
Nessler (Average) [2]: 528 IU/mg | Nessler Plate 1 [2]: 567 IU/mg | Nessler Plate 2 [2]: 528 IU/mg | Nessler Plate 3 [2]: 490 IU/mg | Enzyme activity compared to the equally assayed non-modified Crisantaspase [1]: 78.2% | apparent molecular size [4]: 820 kDa

B1: Oncaspar®: E. coli L-asparaginase modified at multiple lysine residues using 5 kDa mPEG-succinimidyl succinate (conjugate, UniProt P00805 23-348, looked up)
L-asparaginase 2: LPNITILATGGTIAGGGDSATKSNYTVGKVGVENLVNAVPQLKDIANVKGEQVVNIGSQDMNDNVWLTLAKKINTDCDKTDGFVITHGTDTMEETAYFLDLTVKCDKPVVMVGAMRPSTSMSADGPFNLYNAVVTAADKASANRGVLVVMNDTVLDGRDVTKTNTTDVATFKSVNYGPLGYIHNGKIDYQRTPARKHTSDTPFDVSKLNELPKVGIVYNYANASDLPAKALVDAGYDGIVSAGVGNGNLYKSVFDTLATAAKTGTAVVRSSRVPTGATTQDAEVDDAKYGFVASGTLNPQKARVLLQLALTQTKDPQQIQQIFNQY
modifications: 5 kDa mPEG succinimidyl succinate
notes: E. coli L-asparaginase modified at multiple lysine residues using 5 kDa mPEG-succinimidyl succinate
children who had an allergic reaction [5]: 30-41% | in vitro activity [6]: approximately 50%

Reference: patent EP3418383A1, “MODIFIED L-ASPARAGINASE” (XL-protein GmbH, priority 2017, dated 2018)
